Source: article PMC6220335, “Molecular structure of promoter-bound yeast TFIID” (Nature Communications, 2018)
Blank lines part the entries; values can stand above or below the binder they belong to.

How the values were obtained:
Experiment in all cases: cross-linking; 50 µg purified TFIID, 3 mM BS3, 2 h at 25 °C; trypsin, SCX fractionation, Orbitrap Fusion MS; pLink and Nexus, 5% FDR
Details in all cases: both partners purified
[1] = biological target: T1, Taf8, subunit of Komagataella phaffii TFIID (Komagataella phaffii, UniProt F2QT15 1-517)
T1 construct: Taf8, TFIID subunit of the yeast Komagataella phaffii (formerly Pichia pastoris); putative helices placed in the cryo-EM map; also called KpTaf8; source: endogenous, K. phaffii nuclear extract; co-purified in TFIID by SBP-tagged Taf2 (streptavidin beads, sucrose gradient)
T1 sequence (looked up): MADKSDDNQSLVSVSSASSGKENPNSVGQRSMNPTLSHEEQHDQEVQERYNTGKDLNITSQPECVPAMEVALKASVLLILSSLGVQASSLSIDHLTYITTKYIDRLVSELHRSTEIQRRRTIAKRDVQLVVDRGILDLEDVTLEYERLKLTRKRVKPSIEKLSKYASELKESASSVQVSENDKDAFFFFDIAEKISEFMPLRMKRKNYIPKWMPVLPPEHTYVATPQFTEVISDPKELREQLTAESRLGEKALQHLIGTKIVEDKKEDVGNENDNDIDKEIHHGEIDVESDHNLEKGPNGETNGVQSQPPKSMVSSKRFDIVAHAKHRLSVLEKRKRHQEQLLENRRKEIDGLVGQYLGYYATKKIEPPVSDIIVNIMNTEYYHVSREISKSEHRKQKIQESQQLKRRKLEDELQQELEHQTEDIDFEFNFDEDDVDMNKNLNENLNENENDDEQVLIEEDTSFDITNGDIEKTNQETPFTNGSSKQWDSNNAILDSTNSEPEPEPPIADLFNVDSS

[2] = biological target: T2, Taf5, subunit of Komagataella phaffii TFIID (Komagataella phaffii, UniProt F2QWD3 1-722)
T2 construct: Taf5, TFIID subunit of the yeast Komagataella phaffii (formerly Pichia pastoris); WD40 repeat and NTD (residues 99–243) modelled in the cryo-EM map; two copies in holo-TFIID; source: endogenous, K. phaffii nuclear extract; co-purified in TFIID by SBP-tagged Taf2 (streptavidin beads, sucrose gradient)
T2 sequence (looked up): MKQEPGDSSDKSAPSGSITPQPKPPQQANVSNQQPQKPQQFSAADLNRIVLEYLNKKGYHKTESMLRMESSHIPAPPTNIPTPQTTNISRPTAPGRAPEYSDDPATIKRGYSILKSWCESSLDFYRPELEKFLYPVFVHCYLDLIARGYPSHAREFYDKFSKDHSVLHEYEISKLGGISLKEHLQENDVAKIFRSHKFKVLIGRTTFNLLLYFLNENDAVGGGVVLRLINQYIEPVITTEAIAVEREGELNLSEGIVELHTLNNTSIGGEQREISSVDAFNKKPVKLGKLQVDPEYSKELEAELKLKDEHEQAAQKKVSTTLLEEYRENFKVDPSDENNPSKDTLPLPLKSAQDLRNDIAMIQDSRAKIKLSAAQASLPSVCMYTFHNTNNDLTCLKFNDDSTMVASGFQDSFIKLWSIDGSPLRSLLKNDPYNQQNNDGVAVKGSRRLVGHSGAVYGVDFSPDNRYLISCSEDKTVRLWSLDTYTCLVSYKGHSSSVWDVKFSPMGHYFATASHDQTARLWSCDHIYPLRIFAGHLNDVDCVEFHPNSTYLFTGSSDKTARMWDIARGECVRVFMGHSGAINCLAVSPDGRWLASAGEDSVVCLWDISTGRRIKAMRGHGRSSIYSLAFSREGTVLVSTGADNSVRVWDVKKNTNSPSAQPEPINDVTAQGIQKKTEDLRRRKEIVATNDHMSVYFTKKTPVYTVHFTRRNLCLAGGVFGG

[3] = biological target: T3, Taf11, subunit of Komagataella phaffii TFIID (Komagataella phaffii, UniProt F2QRB1 1-281)
T3 construct: Taf11, TFIID subunit of the yeast Komagataella phaffii (formerly Pichia pastoris); histone-fold domain modelled in the cryo-EM map; source: endogenous, K. phaffii nuclear extract; co-purified in TFIID by SBP-tagged Taf2 (streptavidin beads, sucrose gradient)
T3 sequence (looked up): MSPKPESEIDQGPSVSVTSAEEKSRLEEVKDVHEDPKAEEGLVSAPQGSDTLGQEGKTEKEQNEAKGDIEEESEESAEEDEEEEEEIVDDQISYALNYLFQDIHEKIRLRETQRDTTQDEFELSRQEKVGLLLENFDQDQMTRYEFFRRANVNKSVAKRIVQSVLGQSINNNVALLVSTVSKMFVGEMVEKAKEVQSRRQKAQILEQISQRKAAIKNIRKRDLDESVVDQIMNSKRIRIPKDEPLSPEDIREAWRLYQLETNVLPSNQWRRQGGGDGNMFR

[4] = biological target: T4, Taf2 with C-terminal streptavidin-binding peptide tag, subunit of Komagataella phaffii TFIID (Komagataella phaffii, UniProt F2QRH9 1-1571)
T4 construct: Taf2, TFIID subunit of the yeast Komagataella phaffii (formerly Pichia pastoris); residues 36 to 1194 modelled in the cryo-EM map; bait of the purification; also called SBP-tagged Taf2; source: K. phaffii strain with SBP-tagged Taf2, nuclear extract; purified (streptavidin beads, biotin elution, sucrose gradient)

[5] = biological target: T5, Taf1 (TBP-associated factor 1), subunit of Komagataella phaffii TFIID (Komagataella phaffii, UniProt F2QMX2 1-1010)
T5 construct: Taf1, TFIID subunit of the yeast Komagataella phaffii (formerly Pichia pastoris); native subunit of the purified complex; also called KpTaf1; source: endogenous, K. phaffii nuclear extract; co-purified in TFIID by SBP-tagged Taf2 (streptavidin beads, sucrose gradient)
T5 sequence (looked up): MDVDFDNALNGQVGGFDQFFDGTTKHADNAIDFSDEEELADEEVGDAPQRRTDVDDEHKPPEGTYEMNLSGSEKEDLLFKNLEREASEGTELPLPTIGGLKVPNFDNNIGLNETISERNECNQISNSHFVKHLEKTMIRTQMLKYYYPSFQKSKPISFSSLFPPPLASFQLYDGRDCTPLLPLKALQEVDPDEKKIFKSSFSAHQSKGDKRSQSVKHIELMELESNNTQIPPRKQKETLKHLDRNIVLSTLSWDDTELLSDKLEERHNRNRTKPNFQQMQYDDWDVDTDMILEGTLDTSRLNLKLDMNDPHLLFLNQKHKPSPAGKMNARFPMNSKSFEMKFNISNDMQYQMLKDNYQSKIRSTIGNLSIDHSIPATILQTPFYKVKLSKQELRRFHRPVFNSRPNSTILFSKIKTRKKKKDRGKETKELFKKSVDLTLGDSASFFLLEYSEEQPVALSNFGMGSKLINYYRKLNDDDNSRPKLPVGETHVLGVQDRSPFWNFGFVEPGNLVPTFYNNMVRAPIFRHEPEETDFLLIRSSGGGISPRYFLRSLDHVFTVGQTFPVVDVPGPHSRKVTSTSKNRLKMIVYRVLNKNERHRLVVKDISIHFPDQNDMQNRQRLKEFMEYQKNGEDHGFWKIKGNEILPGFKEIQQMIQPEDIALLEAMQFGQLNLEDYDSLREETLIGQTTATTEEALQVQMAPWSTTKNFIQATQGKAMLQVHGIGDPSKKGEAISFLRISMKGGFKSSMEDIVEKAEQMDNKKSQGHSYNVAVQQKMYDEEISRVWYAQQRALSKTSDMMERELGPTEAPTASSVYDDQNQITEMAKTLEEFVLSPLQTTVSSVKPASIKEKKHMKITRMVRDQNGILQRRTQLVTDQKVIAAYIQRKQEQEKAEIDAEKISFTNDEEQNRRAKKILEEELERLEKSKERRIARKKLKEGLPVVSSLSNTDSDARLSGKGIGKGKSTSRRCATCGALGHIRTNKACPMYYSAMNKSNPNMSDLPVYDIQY

binding result [1]: binds
B1: Taf10, subunit of Komagataella phaffii TFIID (natural protein, UniProt F2QLJ9 1-217, looked up)
chain: MSTEKLFEDLDEDSLMQDVEGGVEGSMTIEEEPEPNDEKEAPHISMPSLPEYTRKDKTLEEILEMMEDEEFTPIIPDAVTDYYLAKNGFETSDIKIKRILALATQKFISDIAQDAYEYSRIRSSSSVYTSANPQARARQLVAGQQQQQQQQPQQQQQQQPQTGASQPAPTVGGSGGGGGGGGGTSTGTNNKVVLTMDDLRSALGEYGINVKRPNFYR
notes: Taf10, TFIID subunit of the yeast Komagataella phaffii (formerly Pichia pastoris); source: endogenous, K. phaffii nuclear extract; co-purified in TFIID by SBP-tagged Taf2 (streptavidin beads, sucrose gradient)

binding result [2]: binds
binding result [3]: binds
B2: Taf9, subunit of Komagataella phaffii TFIID (natural protein, UniProt F2QTW3 1-153, looked up)
chain: MTNEQAAIPRDVRLLHLIFATQNIYSYQDHVPLQLMDFAYRYTTGTLQDATIYSDHAHASGSHISNAGNAGTNAQLTTEDIRLAIAARTNYQFKPVPPKELLLELAAERNKKPLPAVIPTWGIRLPPEKYCLTGKDWVLEDEEEAVSYKKRKT
notes: Taf9, TFIID subunit of the yeast Komagataella phaffii (formerly Pichia pastoris); histone-fold domain modelled in the cryo-EM map; source: endogenous, K. phaffii nuclear extract; co-purified in TFIID by SBP-tagged Taf2 (streptavidin beads, sucrose gradient)

binding result [4]: binds
binding result [5]: binds
B3: Taf7, subunit of Komagataella phaffii TFIID (natural protein, UniProt F2QXR8 1-460, looked up)
chain: MIKLKLHTDKKQNTVERRPKIKVKPPINKPESTVIPRIRVKPTRIAGDGYDSEDPDREDDPTTEEAIVMRIVPNDYSLEYVKKCVEQGDFSEISLQWKDKRRAVLRLKDRLYGAKLVDLPTMVEIHKTIDRKNIFKTMDVSQILLVIKELKYESEYLDIQLTASETFDDGLTPPLRGVKKRFDKRMTSKVFQIIEEQVDELFRLDEEAEASKYELVDTEAGTIPSFDADASTPNTKEFTVRGHLDVEDNEDLELELEQAFQQQSDTPLNPQQRSKGGRKTNDSDAHVRFYEQEEEDDEDEETFELKRVCSAEAKVEEGEEEAEEETEETEDDEDDDDEEVVGGKEIISGQRAGIDERLTHTQIIKEEIEELQATIGLKQSDFNKASNPIMKNRISDVIGRLKAELETKLRQVEMEQKEQQNNSNVTSHNIYQQRELDEDEDEDDDEDGDEDDDDDMEDLF
notes: Taf7, TFIID subunit of the yeast Komagataella phaffii (formerly Pichia pastoris); source: endogenous, K. phaffii nuclear extract; co-purified in TFIID by SBP-tagged Taf2 (streptavidin beads, sucrose gradient)
